According to publication PMC8796304 (ACS Central Science, 2021):
Ends that are not written are not given here.

T1: GPI-anchored myc peptide tag (Homo sapiens c-Myc epitope tag, UniProt P01106, also: GPI anchor)
T1 chain: EQKLISEEDL


How the values were obtained:
[1] = molecular target: T2, Frizzled-7/Fc chimera protein (Homo sapiens, UniProt O75084); test: ELISA
[2] = molecular target: T2, Frizzled-7/Fc chimera protein; test: BLI
[3] = molecular target: human Frizzled-7 on Fzd7+myc+ CHO cells (Homo sapiens, UniProt O75084); test: flow cytometry on cells
[4] = molecular target: Frizzled 2 extracellular domain (Homo sapiens (assumed), UniProt Q14332); test: ELISA
Sequence of Frizzled 2 extracellular domain (Q14332 whole entry, looked up, the tested form may be a part): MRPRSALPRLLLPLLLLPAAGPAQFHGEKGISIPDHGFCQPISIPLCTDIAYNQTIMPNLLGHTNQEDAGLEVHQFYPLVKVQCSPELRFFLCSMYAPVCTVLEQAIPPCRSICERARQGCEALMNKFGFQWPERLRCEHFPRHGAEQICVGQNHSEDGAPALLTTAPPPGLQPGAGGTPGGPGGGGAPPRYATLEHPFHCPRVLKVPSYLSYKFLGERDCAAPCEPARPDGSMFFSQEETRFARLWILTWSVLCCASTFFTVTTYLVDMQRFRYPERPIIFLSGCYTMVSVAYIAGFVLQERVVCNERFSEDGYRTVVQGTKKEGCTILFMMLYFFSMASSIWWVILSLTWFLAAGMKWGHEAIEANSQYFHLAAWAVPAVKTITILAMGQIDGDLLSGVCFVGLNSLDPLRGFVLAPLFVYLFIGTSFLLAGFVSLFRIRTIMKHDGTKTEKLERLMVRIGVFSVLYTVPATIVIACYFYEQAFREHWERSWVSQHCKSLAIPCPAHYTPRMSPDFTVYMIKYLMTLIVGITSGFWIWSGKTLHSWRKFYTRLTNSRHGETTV

[5] = molecular target: Frizzled 1 extracellular domain (Homo sapiens (assumed), UniProt Q9UP38); test: ELISA
Sequence of Frizzled 1 extracellular domain (Q9UP38 whole entry, looked up, the tested form may be a part): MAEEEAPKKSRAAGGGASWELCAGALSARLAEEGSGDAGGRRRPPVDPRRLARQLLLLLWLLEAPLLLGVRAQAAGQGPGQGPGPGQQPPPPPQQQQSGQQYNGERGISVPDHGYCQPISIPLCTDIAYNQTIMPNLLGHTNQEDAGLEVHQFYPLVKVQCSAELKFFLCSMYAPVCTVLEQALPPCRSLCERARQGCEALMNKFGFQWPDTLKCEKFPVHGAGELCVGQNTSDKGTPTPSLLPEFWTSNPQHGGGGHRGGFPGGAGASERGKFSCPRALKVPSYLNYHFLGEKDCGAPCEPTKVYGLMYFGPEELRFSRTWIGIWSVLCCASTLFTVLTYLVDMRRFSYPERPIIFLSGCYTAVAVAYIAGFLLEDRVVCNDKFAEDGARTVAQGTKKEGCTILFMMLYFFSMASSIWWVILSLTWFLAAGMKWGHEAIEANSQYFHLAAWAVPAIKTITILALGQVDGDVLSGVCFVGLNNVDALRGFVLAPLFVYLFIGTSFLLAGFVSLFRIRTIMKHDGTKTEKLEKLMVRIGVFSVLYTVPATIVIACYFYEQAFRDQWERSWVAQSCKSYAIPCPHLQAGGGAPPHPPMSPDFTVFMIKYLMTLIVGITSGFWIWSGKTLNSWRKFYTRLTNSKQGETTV

[6] = molecular target: T1, GPI-anchored myc peptide tag; test: flow cytometry on cells

Row | Binder | EC50 [1] [nM] | Kd [2] [nM] | EC50 [3] [nM] | binding result [4] | binding result [5] | binding result [6]
1 | ML7 (antibody, V domains shown) VH: EVQLVESGGGLVQPGGSLRLSCAASGFNIYYYSMHWVRQAPGKGLEWVASISSYYGYTYYADSVKGRFTISADTSKNTAYLQMNSLRAEDTAVYYCARSWGYGGSSSYALDYWGQGTLVTVSS VL: DIQMTQSPSSLSASVGDRVTITCRASQSVSSAVAWYQQKPGKAPKLLIYSASSLYSGVPSRFSGSRSGTDFTLTISSLQPEDFATYYCQQVGGGPITFGQGTKVEIK | < 10 | 0.448 ± 0.053 | < 10 | binds | binds | no binding (tested: 50 nM)
2 | ML8 (antibody, V domains shown) VH: EVQLVESGGGLVQPGGSLRLSCAASGFNIYYYSMHWVRQAPGKGLEWVASISSYYGYTYYADSVKGRFTISADTSKNTAYLQMNSLRAEDTAVYYCARSWGYGGSSSYALDYWGQGTLVTVSS VL: DIQMTQSPSSLSASVGDRVTITCRASQSVSSAVAWYQQKPGKAPKLLIYSASSLYSGVPSRFSGSRSGTDFTLTISSLQPEDFATYYCQQYAYPVYFLITFGQGTKVEIK | < 10 | 4.98 ± 0.28 | < 10 |  |  | no binding (tested: 50 nM)
3 | ML9 (antibody, V domains shown) VH: EVQLVESGGGLVQPGGSLRLSCAASGFNIYYYSMHWVRQAPGKGLEWVASISSYYGYTYYADSVKGRFTISADTSKNTAYLQMNSLRAEDTAVYYCARSWGYGGSSSYALDYWGQGTLVTVSS VL: DIQMTQSPSSLSASVGDRVTITCRASQSVSSAVAWYQQKPGKAPKLLIYSASSLYSGVPSRFSGSRSGTDFTLTISSLQPEDFATYYCQQGWWGYYSLITFGQGTKVEIK |  | 0.292 ± 0.066 |  |  |  | no binding (tested: 50 nM)
